Measurements published in article PMC2704292.

Target: actin of the thin filaments of rabbit psoas myofibrils (rabbit (endogenous in psoas myofibrils)) (UniProt P68135)
Assay: co-sedimentation

“rabbit fast skeletal tropomyosin (from UniProt P58772 1-284; P58776 1-284) (natural protein)” showed an average level of replacement of Tm in reconstituted myofibrils of 96%.
